Article PMC2945607 (Molecular cell, 2010)

Molecular target: T1, recombinant Caulobacter FtsZ (Caulobacter crescentus, UniProt B8H080 1-508)
T1 sequence (looked up): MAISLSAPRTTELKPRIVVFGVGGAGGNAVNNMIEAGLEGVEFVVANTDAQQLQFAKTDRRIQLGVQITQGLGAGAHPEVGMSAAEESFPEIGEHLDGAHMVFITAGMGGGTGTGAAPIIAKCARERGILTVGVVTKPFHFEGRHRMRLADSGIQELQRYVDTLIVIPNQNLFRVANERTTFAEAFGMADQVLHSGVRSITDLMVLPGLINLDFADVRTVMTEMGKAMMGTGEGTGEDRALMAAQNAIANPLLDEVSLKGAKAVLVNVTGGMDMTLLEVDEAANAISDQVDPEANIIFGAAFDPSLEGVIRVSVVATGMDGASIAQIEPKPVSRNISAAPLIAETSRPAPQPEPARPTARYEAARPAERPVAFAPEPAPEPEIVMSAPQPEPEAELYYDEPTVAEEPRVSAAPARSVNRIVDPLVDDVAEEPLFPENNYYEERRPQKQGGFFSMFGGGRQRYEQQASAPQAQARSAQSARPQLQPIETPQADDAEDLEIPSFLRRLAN
Experiment: right angle light scattering

fold increase in light scattering at steady state against FtsZ without FzlA: > 10 fold
B1: His6-FzlA (natural protein, Caulobacter crescentus, UniProt Q9A2C6 1-228, looked up)
chain: MSVERTLHHFPLDPASRQVRLALGEKRLPFVEMQVRYWEMPPEFTSLNPSGMPPVLVETKHQRNLVICETRAILEHIEETETEPPLLGRDPAERAEARRLLQWFDRKFDNEVNGFLLHEKMEKRLLRMGAPDLAALRQGREALRMHLGYIESLLQTRDWLAGRRMSLADFAAAAHLSVIDYFGDVPWKDFQAAKTWYMKLKSRPCFRPILADRWPGLAPAAHYDDLDF
